Laboratory results as given in PMC12561182, “Gal3‐CaN‐Smurf1 Complex Sequestrates FLCN‐FNIPs to Facilitate TFEB Activation in Response to Endomembrane Damage” (Advanced Science, 2025).

B1: GST-TFEB (natural protein, UniProt P19484 1-476, looked up)
chain: MASRIGLRMQLMREQAQQEEQRERMQQQAVMHYMQQQQQQQQQQLGGPPTPAINTPVHFQSPPPVPGEVLKVQSYLENPTSYHLQQSQHQKVREYLSETYGNKFAAHISPAQGSPKPPPAASPGVRAGHVLSSSAGNSAPNSPMAMLHIGSNPERELDDVIDNIMRLDDVLGYINPEMQMPNTLPLSSSHLNVYSSDPQVTASLVGVTSSSCPADLTQKRELTDAESRALAKERQKKDNHNLIERRRRFNINDRIKELGMLIPKANDLDVRWNKGTILKASVDYIRRMQKDLQKSRELENHSRRLEMTNKQLWLRIQELEMQARVHGLPTTSPSGMNMAELAQQVVKQELPSEEGPGEALMLGAEVPDPEPLPALPPQAPLPLPTQPPSPFHHLDFSHSLSFGGREDEGPPGYPEPLAPGHGSPFPSLSKKDLDLMLLDDSLLPLASDPLLSTMSPEASKASSRRSSFSMEEGDVL
notes: TFEB, transcription factor EB; source: E. coli, purified
B2: GST-FLCN (natural protein, UniProt Q8NFG4 1-579, looked up)
chain: MNAIVALCHFCELHGPRTLFCTEVLHAPLPQGDGNEDSPGQGEQAEEEEGGIQMNSRMRAHSPAEGASVESSSPGPKKSDMCEGCRSLAAGHPGYISHDKETSIKYVSHQHPSHPQLFSIVRQACVRSLSCEVCPGREGPIFFGDEQHGFVFSHTFFIKDSLARGFQRWYSIITIMMDRIYLINSWPFLLGKVRGIIDELQGKALKVFEAEQFGCPQRAQRMNTAFTPFLHQRNGNAARSLTSLTSDDNLWACLHTSFAWLLKACGSRLTEKLLEGAPTEDTLVQMEKLADLEEESESWDNSEAEEEEKAPVLPESTEGRELTQGPAESSSLSGCGSWQPRKLPVFKSLRHMRQVLGAPSFRMLAWHVLMGNQVIWKSRDVDLVQSAFEVLRTMLPVGCVRIIPYSSQYEEAYRCNFLGLSPHVQIPPHVLSSEFAVIVEVHAAARSTLHPVGCEDDQSLSKYEFVVTSGSPVAADRVGPTILNKIEAALTNQNLSVDVVDQCLVCLKEEWMNKVKVLFKFTKVDSRPKEDTQKLLSILGASEEDNVKLLKFWMTGLSKTYKSHLMSTVRSPTASESRN
notes: FLCN, folliculin; source: E. coli, purified

Molecular target: T1, His-Flag-Smurf1 (UniProt Q9HCE7-2 1-731)
T1 construct: Smurf1; printed length 731 (HECT domain residues 374–731, catalytic C699); also called SMAD Specific E3 Ubiquitin Protein Ligase 1; source: E. coli, purified
Assay: pull-down; GST pull-down: GST fusion and His-tagged partner both purified from E. coli; 4 °C overnight, washed with PBS
Settings: both partners purified

T1 sequence (Q9HCE7 other isoform, or with tags, fused parts or gaps): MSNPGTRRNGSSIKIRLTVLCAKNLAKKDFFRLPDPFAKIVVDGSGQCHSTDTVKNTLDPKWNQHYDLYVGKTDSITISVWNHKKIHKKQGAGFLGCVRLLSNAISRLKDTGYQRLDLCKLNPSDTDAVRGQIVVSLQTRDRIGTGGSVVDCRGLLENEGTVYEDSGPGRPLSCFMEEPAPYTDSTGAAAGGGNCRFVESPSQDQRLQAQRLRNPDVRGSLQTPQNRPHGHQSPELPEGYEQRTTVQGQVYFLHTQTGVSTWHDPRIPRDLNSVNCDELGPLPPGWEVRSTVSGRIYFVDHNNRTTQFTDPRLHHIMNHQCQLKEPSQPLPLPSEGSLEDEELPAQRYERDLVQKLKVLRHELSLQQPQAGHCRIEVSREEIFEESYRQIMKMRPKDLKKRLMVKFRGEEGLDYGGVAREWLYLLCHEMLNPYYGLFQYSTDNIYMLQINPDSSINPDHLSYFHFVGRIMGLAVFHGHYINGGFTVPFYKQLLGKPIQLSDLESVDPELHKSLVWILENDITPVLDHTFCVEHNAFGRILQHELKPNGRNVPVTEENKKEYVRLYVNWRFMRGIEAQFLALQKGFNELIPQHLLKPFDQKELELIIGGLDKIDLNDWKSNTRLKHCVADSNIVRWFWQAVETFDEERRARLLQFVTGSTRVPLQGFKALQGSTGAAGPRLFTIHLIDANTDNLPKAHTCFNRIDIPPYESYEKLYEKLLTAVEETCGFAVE

| Binder | binding result |
| --- | --- |
| B1 | binds |
| B2 | binds |
